This note sets out measurements from patent publication US6465430.

For the assay, the target named is soluble TPO-R (thrombopoietin receptor), immobilized (UniProt P40238 26-491). Description: competition ELISA vs MBP-TPO156 (+: IC50 <=200 µM). (An ELISA detects its analyte on a solid surface through an enzyme-linked reagent.)

Bridges are numbered along the chain shown (N, C = ends). Where no end group is shown, it is not given here.

Chain of soluble TPO-R (thrombopoietin receptor), immobilized (P40238 26-491): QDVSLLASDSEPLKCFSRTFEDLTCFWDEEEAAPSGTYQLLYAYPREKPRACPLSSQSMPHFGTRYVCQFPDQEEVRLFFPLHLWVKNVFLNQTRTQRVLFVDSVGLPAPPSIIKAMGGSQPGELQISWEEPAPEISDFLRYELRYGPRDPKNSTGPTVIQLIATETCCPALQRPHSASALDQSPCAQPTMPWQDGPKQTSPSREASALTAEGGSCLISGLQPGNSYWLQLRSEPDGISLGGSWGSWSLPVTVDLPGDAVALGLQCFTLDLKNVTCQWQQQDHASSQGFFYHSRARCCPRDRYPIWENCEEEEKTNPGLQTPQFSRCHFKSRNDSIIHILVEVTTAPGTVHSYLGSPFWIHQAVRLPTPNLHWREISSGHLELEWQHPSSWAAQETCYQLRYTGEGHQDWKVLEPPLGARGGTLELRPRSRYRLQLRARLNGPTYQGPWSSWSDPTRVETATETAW

B1: cyclized SEQ ID NO:12 compound, ADG - deletion (peptide)
peptide: CPTLREWISFC-NH2
modifications: disulfide 1-11 (inferred)
On to B1, for which the half-inhibitory concentration (IC50) was in the range of 0.5 to 200 µM.

B2: cyclized SEQ ID NO:12 compound, I - A (peptide)
peptide: CADGPTLREWASFC-NH2
modifications: disulfide 1-14 (inferred)
As for B2, the IC50 lay in the range of 0.5 to 200 µM.

The term IC50 denotes the concentration at which inhibition is half-maximal. Read a high IC50 as weaker potency.
